The source of these data is US20140336119A1 (INSTITUT PASTEUR, published 2014).

Assay [1] has as its target T1, Muc2 (human, glycosylated, secreted in colonic mucus) (human, UniProt Q02817 21-5289, limits assumed, native glycosylation, with sulfated oligosaccharides).
T1 construct: Native secreted mucin in mucus extracts or tissue, not a purified recombinant protein; also called glycoprotein Muc2
As to the kind of experiment: fluorescent staining of fixed human colonic mucus; MUB40 probes said to display the same properties as the MUB70 probe. As to the method: FIG. 22. Schematic description of the Cy5-MUB40-1, Cy5-MUB40-2, Cy5-MUB40-3, Cy5-MUB40-4 peptides (SEQ ID NOS 62 to 65). Fluorescent staining of human colonic mucus was performed by the addition of 1 μg/mL of the corresponding Cy5-conjugated peptides with Phalloidin-RRX (1:100) on formol fixed, paraffin embedded samples. Image acquisition was performed using a fluorescent confocal microscope (see Methods).
FIG. 23 Comparative staining analysis of human colonic goblet cells using Cy5-MUB70 and Cy5-MUB40-1. Fluorescent staining of human colonic mucus was performed by the addition of 1 μg/mL of the corresponding Cy5-conjugated peptides with Phalloidin-RRX (1:100) on formol fixed, paraffin embedded samples. Image acquisition was performed using a fluorescent confocal microscope (see Methods).

The target in assay [2] is T1, Muc2 (human, glycosylated, secreted in …). Kind of assay: staining of PFA-fixed; FIG. 31 is titled 'Identification of Muc2 in neutrophile granules'. The protocol: FIG. 31. Identification of Muc2 in neutrophile granules. Human neutrophil (PMN) granule staining using Cy5-MUB40-1, Cy5-MUB40-2, Cy5-MUB40-3, Cy5-MUB40-4 peptides. Schematic description of the Cy5-conjugated peptides. PMN were purified from healthy donor blood samples and fixed in the presence of 4% PFA. Fluorescent staining of human colonic mucus was performed by the addition of 1 μg/mL of the Cy5-conjugated peptides (Green) with Dapi (1:100) (Blue) and Phalloidin-RRX (1:1000) (Red). Image acquisition was performed using a fluorescent confocal microscope (see Methods).

For assay [3], the target named is Muc5ac (human, in colonic mucus extract) (human, UniProt P98088 28-5654, limits assumed). Kind of assay: pulldown on avidin-agarose beads, dot blot immunodetection. The protocol:
(§1) Pulldown assays were performed in the presence of 600 μg biot-MUB₇₀ bound to 500 μL Avidin-agarose beads (Thermo Scientific) in a Phosphate Buffer pH=8 buffer for 1 h at 4° C. After 3 washes, 10 mg soluble human colonic mucus extract were incubated with the loaded beads for 2 h at 4° C. After 3 washes, beads were boiled in the presence of 1× Laemli buffer. As a negative control, Avidin-agarose beads were loaded with 15 μg biotin (Sigma-Aldrich) and processed using the same procedure. Experiments were performed on two independent occasions.
(§2) In order to identify a MUB₇₀ ligand present in the soluble extracts of human colonic mucus, biot-MUB₇₀, a biotinylated form of MUB₇₀, was synthesized (see Methods) in order to perform pulldown assays. Biot-MUB₇₀ was incubated with avidin beads and further with human colonic mucus extracts (produced in vitro from differentiated HT-29 MTX cells, see Methods). Biotin only was used as a negative control. […] A dot blot assay was then performed, focusing on secreted mucins, which are the major components of colonic mucus. Muc2 was immunodectected in the eluted fraction, and not in the negative control, and Muc5ac, Muc5b or Muc6, all detected in the input were absent from the eluted fraction (FIG. 4A). […] Processing a chemical deglycosylation step on the soluble mucus extract (see Methods) prior to pulldown assay abolished the interaction between Muc2 and biot-MUB₇₀ (FIG. 4A). […] [12].

The target in assay [4] is Muc5b (human, in colonic mucus extract) (human, UniProt Q9HC84 26-5762, limits assumed). Described as above. The protocol:
as §1, §2

Assay [5] addresses Muc6 (human, in colonic mucus extract) (human, UniProt Q6W4X9 23-2439, limits assumed). The description is as above. As to the method: as §1, §2
Assay [6] addresses T2, Muc2 of mouse colonic mucus (mouse, UniProt Q80Z19 21-4576, limits assumed).
T2 construct: The experiment stained colonic mucus; also called murine Muc2
Kind of assay: fluorescent staining of PFA-fixed mouse colon, confocal microscopy. As to the method:
FIG. 11. Mucus staining using Cy5-MUB₇₀ on fixed tissues. (A) Guinea pig colon, (B) rabbit ileum and (C) mouse colon were fixed in PFA 4%. Immunofluorescent staining was performed using Cy5-MUB₇₀ (1 μg/mL) (blue). Actin is stained in red (Phall.-RRX), Muc2 is stained in green (α-Muc2). Observations were performed using a confocal microscope. Bar is 50 μm.

Sequence of Muc6 (human, in colonic mucus extract) (Q6W4X9 23-2439 limits assumed): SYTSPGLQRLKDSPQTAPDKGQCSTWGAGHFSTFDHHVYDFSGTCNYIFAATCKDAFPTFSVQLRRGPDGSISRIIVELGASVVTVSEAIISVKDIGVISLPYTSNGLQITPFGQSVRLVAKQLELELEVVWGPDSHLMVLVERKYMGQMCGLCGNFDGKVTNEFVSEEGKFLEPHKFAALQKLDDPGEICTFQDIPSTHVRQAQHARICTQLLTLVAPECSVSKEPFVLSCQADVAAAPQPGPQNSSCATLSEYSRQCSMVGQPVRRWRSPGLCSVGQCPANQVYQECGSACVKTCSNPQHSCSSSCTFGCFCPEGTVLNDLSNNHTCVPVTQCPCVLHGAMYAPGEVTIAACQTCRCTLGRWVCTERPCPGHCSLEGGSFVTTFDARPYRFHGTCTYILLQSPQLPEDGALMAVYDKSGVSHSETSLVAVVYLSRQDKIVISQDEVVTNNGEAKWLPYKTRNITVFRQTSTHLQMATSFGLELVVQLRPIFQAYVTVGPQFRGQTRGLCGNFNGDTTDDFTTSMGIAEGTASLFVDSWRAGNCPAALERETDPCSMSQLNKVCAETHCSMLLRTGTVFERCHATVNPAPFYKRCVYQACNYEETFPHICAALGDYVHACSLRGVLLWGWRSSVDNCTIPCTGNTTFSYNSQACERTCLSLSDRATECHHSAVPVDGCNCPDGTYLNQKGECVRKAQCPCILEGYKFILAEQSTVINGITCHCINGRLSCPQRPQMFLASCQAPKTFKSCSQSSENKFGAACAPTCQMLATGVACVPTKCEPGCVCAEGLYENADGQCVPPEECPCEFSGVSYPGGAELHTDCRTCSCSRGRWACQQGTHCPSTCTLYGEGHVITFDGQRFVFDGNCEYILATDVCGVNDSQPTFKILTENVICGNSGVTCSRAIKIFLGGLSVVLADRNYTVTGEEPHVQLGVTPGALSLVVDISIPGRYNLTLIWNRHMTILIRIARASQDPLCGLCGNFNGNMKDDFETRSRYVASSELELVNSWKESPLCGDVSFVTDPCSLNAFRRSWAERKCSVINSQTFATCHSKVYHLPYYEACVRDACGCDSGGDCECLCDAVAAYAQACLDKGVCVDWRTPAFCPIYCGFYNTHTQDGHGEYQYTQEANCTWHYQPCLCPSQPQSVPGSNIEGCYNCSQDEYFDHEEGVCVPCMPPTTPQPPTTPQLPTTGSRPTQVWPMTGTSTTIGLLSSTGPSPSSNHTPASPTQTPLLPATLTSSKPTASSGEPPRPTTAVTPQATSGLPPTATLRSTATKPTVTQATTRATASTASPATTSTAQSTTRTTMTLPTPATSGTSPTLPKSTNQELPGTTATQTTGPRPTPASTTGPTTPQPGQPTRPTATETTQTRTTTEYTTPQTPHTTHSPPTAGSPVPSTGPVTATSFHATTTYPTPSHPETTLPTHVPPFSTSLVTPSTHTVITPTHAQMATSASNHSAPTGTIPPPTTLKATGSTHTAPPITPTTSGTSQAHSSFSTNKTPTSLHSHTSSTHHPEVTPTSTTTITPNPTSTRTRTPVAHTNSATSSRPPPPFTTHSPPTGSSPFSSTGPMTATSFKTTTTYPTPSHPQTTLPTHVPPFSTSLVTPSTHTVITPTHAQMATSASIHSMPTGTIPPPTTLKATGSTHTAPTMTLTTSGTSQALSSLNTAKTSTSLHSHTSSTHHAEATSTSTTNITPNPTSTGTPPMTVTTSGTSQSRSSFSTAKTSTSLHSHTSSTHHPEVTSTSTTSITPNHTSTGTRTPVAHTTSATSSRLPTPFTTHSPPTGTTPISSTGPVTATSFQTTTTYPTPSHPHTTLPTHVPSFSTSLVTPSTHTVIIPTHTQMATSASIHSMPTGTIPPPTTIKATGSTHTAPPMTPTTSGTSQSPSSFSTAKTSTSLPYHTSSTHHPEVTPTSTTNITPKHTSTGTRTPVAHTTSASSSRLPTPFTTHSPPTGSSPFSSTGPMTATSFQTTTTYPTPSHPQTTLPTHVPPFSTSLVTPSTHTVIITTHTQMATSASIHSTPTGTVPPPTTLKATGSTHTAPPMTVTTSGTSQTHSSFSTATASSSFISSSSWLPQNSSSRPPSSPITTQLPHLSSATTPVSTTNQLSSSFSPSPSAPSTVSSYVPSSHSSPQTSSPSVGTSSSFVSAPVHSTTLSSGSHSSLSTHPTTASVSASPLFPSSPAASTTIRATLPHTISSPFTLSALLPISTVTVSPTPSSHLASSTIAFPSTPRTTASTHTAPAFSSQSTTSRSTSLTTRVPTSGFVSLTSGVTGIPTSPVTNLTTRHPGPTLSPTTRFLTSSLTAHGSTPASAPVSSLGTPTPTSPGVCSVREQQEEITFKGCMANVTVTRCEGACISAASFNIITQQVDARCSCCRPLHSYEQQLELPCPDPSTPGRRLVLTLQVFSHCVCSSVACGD

B1: Cy5-MUB40-1 (peptide)
peptide: Ac-C(Cy5 maleimide)TAEGIKKFEGDGYELFKDNFPAGEKFDNDDTNDQFYTVIF-NH2
notes: also called MUB40-Cy5#1; Cy5-labeled MUB40-1
Take B1: the binding result in assay [1] was “binds”.

B2: Cy5-MUB40-3 (peptide)
peptide: Ac-C(Cy5 maleimide)DQMLRQDDLDGYTDETIPYSTAEGIKKFEGDGYELFKDNF-NH2
notes: also called MUB40-Cy5#3; Cy5-labeled MUB40-3
Consider B2, for which, in assay [2], the binding result is on record as “binds”.

B3: Cy5-MUB40-4 (peptide)
peptide: Ac-C(Cy5 maleimide)VHVQYIDGETDQMLRQDDLDGYTDETIPYSTAEGIKKFEG-NH2
notes: also called MUB40-Cy5#4; Cy5-labeled MUB40-4
For the molecule B3, in assay [2], the binding result is listed as “binds”.

B4: biot-MUB70 (biotinylated MUB70) (peptide)
peptide: CVHVQYIDGETDQMLRQDDLDGYTDETIPYSTAEGIKKFEGDGYELFKDNFPAGEKFDNDDTNDQFYTVIF
modifications: maleimide-PEG2-biotin on the added N-terminal Cys
notes: Chemically synthesized; also called biotinylated derivative of MUB70
As to B4, the binding result in assay [3], in assay [4] and in assay [5] was “no binding” throughout.

B5: Cy5-MUB70 (peptide)
peptide: B4 peptide
modifications: Cy5 mono maleimide on the added N-terminal Cys
notes: Chemically synthesized; also called MUB70-Cy5; Cy5-labeled MUB
Take B5: the binding result in assay [6] was “no binding (tested: 1 µg/mL)”.

B6: Cy5-MUB40-2 (peptide)
peptide: Ac-C(Cy5 maleimide)GYTDETIPYSTAEGIKKFEGDGYELFKDNFPAGEKFDNDD-NH2
notes: also called MUB40-Cy5#2; Cy5-labeled MUB40-2
As to B6, the binding result in assay [2] is reported as “binds”.
